Experimental data published in the supplement of paper PMC11780869.

Test system: Bacillus subtilis
Test: cleaved RNA product abundance (RNA/gDNA barcode ratio) relative to median wild-type variant (ratio to wild type); higher = more accumulation of the downstream cleavage product
How it was run: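 Oligos with a 9% error rate were used to build barcoded, mutagenized RNase Y cleavage-site windows within truncated aprE or tetM reporter mRNAs, which were integrated into the B. subtilis chromosome. Cultures were grown in LB at 37°C between OD600 0.0003 and 0.3. Cleaved RNA was gel-selected, reverse transcribed and barcode-sequenced, as were genomic DNA barcodes, and UMIs were collapsed. Cleaved product abundance is the scaled RNA:gDNA barcode ratio, with the median construct carrying the unmutated site as reference.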

[1] = experiment (reporter, strain, medium): exp 8a: truncated aprE reporter, strain BJT201 with 2% xylose (RNase J1 expressed), cleavage site: glnRA (positions -5 to +31 mutated)
[2] = experiment (reporter, strain, medium): exp 2b: truncated aprE reporter, strain BJT200, cleavage site: cggR-gapA (positions -7 to +36 mutated)
[3] = experiment (reporter, strain, medium): exp 4a: truncated aprE reporter, strain BJT201 with 2% xylose (RNase J1 expressed), cleavage site: cggR-gapA (positions -7 to +36 mutated)
[4] = experiment (reporter, strain, medium): exp 6: tetM reporter, strain 168, cleavage site: cggR-gapA (positions -7 to +36 mutated)

CGACATGTCCCGCTTCTTTCATTAAACCGTTAGCAACTGTTTTGCTATATACATTTACCTTTTAAGAGGAGGAAT
cleaved RNA product abundance [1]: 0.915

ACAGACGAAGGAGCCGCAAAGAAGTTATTAAGGGATGAATAATCCATCAATAGAAATATCTCTCACTTATTTAAA
cleaved RNA product abundance [2]: 0.0728
cleaved RNA product abundance [3]: 0.0602

ACAGACGAAGGAGCCGCAAAGAAGTTATTAAGGGATGAATAATCGCTCAAAATAAATATCTCTCACTTATTTAAA
cleaved RNA product abundance [3]: 0.116

CGACATGTCCCGCTTCTTTCATTAATCCGTTAGCAACTGTTTTGCTATATTTATTTACCTTTTAAGAGGAGGAAT
cleaved RNA product abundance [1]: 0.495

ACAGACGAAGGAGCCGCAAAGAAATTATTAAGGGATGAATAATGCCTCAATATAAATATCTCTCACTTATTTAAA
cleaved RNA product abundance [2]: 0.172
cleaved RNA product abundance [3]: 0.132

ACAGACGAAGGAGCCGCAAAGAAGTTATTAAGGGATGAATAATCACTAAATATAAATATCTCTCACTTATTTAAA
cleaved RNA product abundance [3]: 0.142

CGACATGTCCCGCTTCTTTCATTAATACGTTAGCAACTGTTTTGCTATAAACATTTACCTTTTAAGAGGAGGAAT
cleaved RNA product abundance [1]: 0.505

ACAGACGAAGGAGCCGCAAAGAAGTTATTAAGGAATGAATAATCCCTCAATATAAATATCTCTCACTTATTTAAA
cleaved RNA product abundance [2]: 0.109
cleaved RNA product abundance [3]: 0.132
cleaved RNA product abundance [4]: 0.126

CGACATGTCCCGCTTCTTTCATTAATCCGTTAGCAACTGTTTTGCTATATAAATATACCTTTTAAGAGGAGGAAT
cleaved RNA product abundance [1]: 1.3

CGACATGTCCCGCTTCTTTCATTAATCCGTTAGCAACCGTTTTGGTATATACATTTACCTTTTAAGAGGAGGAAT
cleaved RNA product abundance [1]: 0.187

CGACATGTCCCGCTTCTTTCATTAATCCGTTAGGAACTATTTTGCTATATACATTTACCTTTTAAGAGGAGGAAT
cleaved RNA product abundance [1]: 0.437

CGACATGTCCCGCTTCTTTCATTAATTCGTTATCAACTGTTTTGCTATATACATTTACCTTTTAAGAGGAGGAAT
cleaved RNA product abundance [1]: 0.31

ACAGACGAAGGAGCCGCAAAGAAGTAATTAAGGGATGAACAATCCCTCAATATAAATATCTCTCACTTATTTAAA
cleaved RNA product abundance [2]: 0.181

ACAGACGAAGGAGCCGCAAAGAAGTTATTAAGGATGAATAATCCCTCAATATAAATATCTCTCACTTATTTAAAG
cleaved RNA product abundance [3]: 0.294

CGACATGTCCCGCTTCTTTCATTAATCCGTTAGCAAGTGATTTGCTATATACATTTACCTTTTAAGAGGAGGAAT
cleaved RNA product abundance [1]: 1.25

CGACATGTCCCGCTTCTTTCATTAATCCGTTAGCAACTGTTTTGCTATATAAATGTACCTTTTAAGAGGAGGAAT
cleaved RNA product abundance [1]: 1.78

CGACATGTCCCGCTTCTTTCATTAATCCGTTAGCAACGGTTGTGCTATATACATTTACCTTTTAAGAGGAGGAAT
cleaved RNA product abundance [1]: 0.353

ACAGACGAAGGAGCCGCAAACAAGTTATTAAGGGATGTATAATCCCTCAATATAAATATCTCTCACTTATTTAAA
cleaved RNA product abundance [3]: 0.478

ACAGACGAAGGAGCCGCAAAGAACTTATTAAGGGATGAATAATCCCTCAATATAAATATTTCTCACTTATTTAAA
cleaved RNA product abundance [3]: 0.307

ACAGACGAAGGAGCCGCAAAGAACTTATTAAGGGATGAATAATCCCTCCATATAAATATCTCTCACTTATTTAAA
cleaved RNA product abundance [3]: 0.28

CGACATGTCCCGCTTCTTTCATTAATCCGTTAACAACTGTTTTGCCATATACATTTACCTTTTAAGAGGAGGAAT
cleaved RNA product abundance [1]: 0.114

ACAGACGAAGGAGCCGCAAAGAAGTTATTAAGGTATGAATAATCCCTCAGTATAAATATCTCTCACTTATTTAAA
cleaved RNA product abundance [3]: 0.1

ACAGACGAAGGAGCCGCAAAGAAGTTATTAAGGGACGAATAATCCCTCAGTATAAATATCTCTCACTTATTTAAA
cleaved RNA product abundance [3]: 0.415

CGACATGTCCCGCTTCTTTCATTAATCCGTTAGCAAATGTTTTGCTATATACATTTACTTTTTAAGAGGAGGAAT
cleaved RNA product abundance [1]: 1.2

ACAGACGAAGGAGCCGCAAGGAAGTTATTAAGGTATGAATAATCCCTCAATATAAATATCTCTCACTTATTTAAA
cleaved RNA product abundance [3]: 0.101

ACAGACGAAGGAGCCGCAAAGAAGTCATTAAGGGATGAATAATCCTTCAATATAAATATCTCTCACTTATTTAAA
cleaved RNA product abundance [3]: 0.189

CGACATGTCCCGCTTCTTTCATTAATCCGTTAGCAACTGTTTTGCGATATACATTTATCTTTTAAGAGGAGGAAT
cleaved RNA product abundance [1]: 0.552

CGACATGTCCCGCTTCTTTCATTAATCAGTTAGCAACTTTTTTGCTATATACATTTACCTTTTAAGAGGAGGAAT
cleaved RNA product abundance [1]: 1.18

CGACATGTCCCGCTTCTTTCATTAACCCGTTAGCAACTGTTTTGCTATATAGATTTACCTTTTAAGAGGAGGAAT
cleaved RNA product abundance [1]: 0.53

ACAGACGAAGGAGCCGCAAAGAAGATATTAAGGGATGAATAATCCCCCAATATAAATATCTCTCACTTATTTAAA
cleaved RNA product abundance [3]: 0.32

ACAGACGAAGGAGCCGCAAAGAAGTTTTTAAGGGATGAATAAACCCTCAATATAAATATCTCTCACTTATTTAAA
cleaved RNA product abundance [3]: 0.17

CGACATGTCCCGCTTCTTTCATTAACCCGTTAGAAACTGTTTTGCTATATACATTTACCTTTTAAGAGGAGGAAT
cleaved RNA product abundance [1]: 0.187

ACAGACGAAGGAGCCGCAAAGAAATTATTAAGGGATGAATAACCCCTCAATATAAATATCTCTCACTTATTTAAA
cleaved RNA product abundance [3]: 0.671

ACAGACGAAGGAGCCGCAAAGAAGTTATAAAGGGATGAACAATCCCTCAATATAAATATCTCTCACTTATTTAAA
cleaved RNA product abundance [2]: 0.261

ACAGACGAAGGAGCCGCAAAGAAGTTAATAAGAGATGAATAATCCCTCAATATAAATATCTCTCACTTATTTAAA
cleaved RNA product abundance [3]: 0.133

CGACATGTCCCGCTTCTTTCATTAATCCGATGGCAACTGTTTTGCTATATACATTTACCTTTTAAGAGGAGGAAT
cleaved RNA product abundance [1]: 0.74

ACAGACGAAGGAGCCGCAAAGAAATTATTACGGGATGAATAATCCCTCAATATAAATATCTCTCACTTATTTAAA
cleaved RNA product abundance [3]: 0.396

CGACATGTCCCGCTTCTTTCATTAATCCCTTATCAACTGTTTTGCTATATACATTTACCTTTTAAGAGGAGGAAT
cleaved RNA product abundance [1]: 0.249

ACAGACGAAGGAGCCGCAAGAAGTTATTAAGGGATGAATAATCCCTCAATATAAATATCTCTCACTTATTTAAAG
cleaved RNA product abundance [2]: 1.27
cleaved RNA product abundance [3]: 0.931

ACAGACGAAGGAGCCGCAAAGAAGTTATTAAGGGATGAATAATCATTCAATATAAATATCTCTCACTTATTTAAA
cleaved RNA product abundance [2]: 0.171
cleaved RNA product abundance [3]: 0.295

ACAGACGAAGGAGCCGCAAAAAAGTTATTAAGGGATGAATAATCCCTCAATATAAAGATCTCTCACTTATTTAAA
cleaved RNA product abundance [3]: 0.56

CGACATGTCCCGCTTCTTTCATTAATCCGTTAGCAACTGTTTTGGTATATATATTTACCTTTTAAGAGGAGGAAT
cleaved RNA product abundance [1]: 0.224

ACAGACGAAGGAGCCGCAAAGAAGTTATAAACGGATGAATAATCCCTCAATATAAATATCTCTCACTTATTTAAA
cleaved RNA product abundance [2]: 0.132
cleaved RNA product abundance [3]: 0.181

ACAGACGAAGGAGCCGCAAACAAGTTATTAAGGGATGAATAATCCCTCAATATAAATATCTCTCACTTATTTAAA
cleaved RNA product abundance [2]: 0.78
cleaved RNA product abundance [3]: 0.738
cleaved RNA product abundance [4]: 0.707

ACAGACGAAGGAGCCGCAAAGAAGTTATTAAGGGGTCAATAATCCCTCAATATAAATATCTCTCACTTATTTAAA
cleaved RNA product abundance [3]: 0.611

ACAGACGAAGGAGCCGCAAAGAAGTTATTAAGGGATGAATAATCCCTCAATATAAATATCTCTCGCTTATTTAAA
cleaved RNA product abundance [3]: 0.778

ACAGACGAAGGAGCCGCAAAGAAGTTATTATGGGATGAAAAATCCCTCAATATAAATATCTCTCACTTATTTAAA
cleaved RNA product abundance [3]: 0.334

CGACATGTCCCGCTTCTTTCATTAATCCGTTAGCAACTTTTTTGCTATATACATTTACCTTTTAAGAGGAGGAAT
cleaved RNA product abundance [1]: 1.24

ACAGACGAAGGAGCCGCAAAGAAGTTATTAAGGGATGGATAATCCCTCAATATAAAAATCTCTCACTTATTTAAA
cleaved RNA product abundance [3]: 0.356

ACAGACGAAGGAGCCGCAAAGAAGTTATAAAGGGATGAATAATCCCTCTATATAAATATCTCTCACTTATTTAAA
cleaved RNA product abundance [3]: 0.941

ACAGACGAAGGAGCCGCAAAGAAGATATTAAGGGATGAATTATCCCTCAATATAAATATCTCTCACTTATTTAAA
cleaved RNA product abundance [3]: 0.572

ACAGACGAAGGAGCCGCAAAGAAGTTATTAAGGGATGAATAATCCCCCACTATAAATATCTCTCACTTATTTAAA
cleaved RNA product abundance [3]: 0.3

ACAGACGAAGGAGCCGCAAAAAAGTTATTAAGGGATGAATAATCCCTCTATATAAATATCTCTCACTTATTTAAA
cleaved RNA product abundance [3]: 0.613

ACAGACGAAGGAGCCGCAGAGAAGTTATTAAGGGATGATTAATCCCTCAATATAAATATCTCTCACTTATTTAAA
cleaved RNA product abundance [2]: 0.638

CGACATGTCCCGCTTCTTTCATTAATCCGTTAGAAACTGTTTCGCTATATACATTTACCTTTTAAGAGGAGGAAT
cleaved RNA product abundance [1]: 0.12

CGACATGTCCCGCTTCTTTCATTAATCCGTTAGCAAATGTTTTGCTATATACATTTACCATTTAAGAGGAGGAAT
cleaved RNA product abundance [1]: 1.4

ACAGACGAAGGAGCCGCAAAGAAGTTATTAAGGGATGAAAAACCCCTCAATATAAATATCTCTCACTTATTTAAA
cleaved RNA product abundance [2]: 0.477
cleaved RNA product abundance [3]: 0.485

ACAGACGAAGGAGCCGCGAAGAAGTAATTAAGGGATGAATAATCCCTCAATATAAATATCTCTCACTTATTTAAA
cleaved RNA product abundance [2]: 0.178

ACAGACGAAGGAGCCGCAAAGAAGTTATTAAGGGATGAATAATACCTCTATATAAATATCTCTCACTTATTTAAA
cleaved RNA product abundance [3]: 0.156

ACAGACGAAGGAGCCGCAAAGAAGTTATTAACGGATGAATAATCCCTCAATACAAATATCTCTCACTTATTTAAA
cleaved RNA product abundance [3]: 0.0789

ACAGACGAAGGAGCCGCAAAGAAGTTATTAAGGGATGAATAATCCCTCATATAAATATCTCTCACTTATTTAAAG
cleaved RNA product abundance [2]: 0.394
cleaved RNA product abundance [3]: 0.256

CGACATGTCCCGCTTCTTTCATTAATCCGTTAGCAACTGTTTTGCTATATACATATTCCTTTTAAGAGGAGGAAT
cleaved RNA product abundance [1]: 0.511
